Measurements as given in PMC3098718.
Several values for one entry are separate records, joined by “and”; a condition that tells them apart may be missing. Equal values may be shown once. Read-outs that look alike come from different tables or passages of the source.

Key:
[1] = molecular target: FLAG::NOS-3 (S644E, T648E), phospho-mimetic (C. elegans); experiment: pull-down
[2] = molecular target: FLAG::NOS-3 (S644E, T648E), phospho-mimetic (C. elegans); experiment: pull-down; remark: listed apart in the source

B1: FBF-1 (natural protein)
chain: MDQSKMRYTNQFRKTPQKPTSTEVGNHHTPAHSPMAQHETSMWNFNSLNPYFSMLNMNDGMNYARHQQNHIVTSRPPTPLTDLMSLRSFQSFPNVFMPVSRSRTSSFIQSDTDSSRLEPDDFSQNVRYCSTEIDRNNSSSKNDHLKYSRPALSRNSRSFTRSNNVLPTWSLDSNGEMRSRLSLSEVLDSGDLMKFAVDKTGCQFLEKAVKGSLTSYQKFQLFEQVIGRKDDFLKLSTNIFGNYFVQEIIGMSLTTYDDDNIKRQEKLKNFISSQMTDMCLDKFACRVIQSSLQNMDLSLACKLVQALPRDARLIAICVDQNANHVIQKVVAVIPLKNWEFIVDFVATPEHLRQICFDKYGCRVVQTIIEKLTADSINVDLTSAAQHLRERALQRLMTSVTNRCQELATNEYANYIIQHIVSNDDLAVYRECIIEKCLMRNLLSLSQEKFASHVVEKAFLHAPMELLAEMMDEIFDGYMPHPGTGKDALDIMMFHQFGNYVVQCMLTICCDAVSGRRQTKEGSYDHANSFQVWLKKLHSRVTKERHRLSRFSSGKKMIETLAHLRSTHPIYGLQSSGHESFKTDCFSTASEHDGLELEKNGIEEGNLRLMRTFSP
modifications: S^35 labeled methionine
For B1, the fold reduction of FBF-1 binding compared to wild-type NOS-3 [1] was 14 fold and the fold reduction of FBF-1 binding compared to wild-type NOS-3 [2] was 17 fold and > 20 fold.
